From publication PMC5902456
Like-named read-outs stand apart in the source and are kept apart here. Blank lines part the entries; values can stand above or below the molecule they belong to.

How the values were obtained:
[1] = target: sfGFP-MAP7 (full-length human MAP7) (human) (UniProt Q14244); assay: TIRF microscopy of fluorescent proteins on immobilized microtubules; recruitment and motility: MAP7 (or ensconsin), 5 nM, flowed in first onto immobilized microtubules, then the kinesin-1 construct (1 nM K560); BRB80 pH 6.8 with 1 mM ATP, 150 mM K-acetate; fold change of kinesin fluorescence on the microtubule against no MAP
[2] = target: taxol-stabilized microtubules polymerized from porcine brain tubulin (porcine) (UniProt P02550)
[3] = target: sfGFP-Ensconsin, wild type (Drosophila melanogaster) (Drosophila melanogaster); assay: TIRF microscopy of fluorescent proteins on immobilized microtubules; recruitment and motility: MAP7 (or ensconsin), 5 nM, flowed in first onto immobilized microtubules, then the kinesin-1 construct (1 nM K560); BRB80 pH 6.8 with 1 mM ATP, 150 mM K-acetate; fold change of kinesin fluorescence on the microtubule against no MAP
Chain of sfGFP-Ensconsin, wild type (Drosophila melanogaster) (Drosophila melanogaster) (main, as listed by the source): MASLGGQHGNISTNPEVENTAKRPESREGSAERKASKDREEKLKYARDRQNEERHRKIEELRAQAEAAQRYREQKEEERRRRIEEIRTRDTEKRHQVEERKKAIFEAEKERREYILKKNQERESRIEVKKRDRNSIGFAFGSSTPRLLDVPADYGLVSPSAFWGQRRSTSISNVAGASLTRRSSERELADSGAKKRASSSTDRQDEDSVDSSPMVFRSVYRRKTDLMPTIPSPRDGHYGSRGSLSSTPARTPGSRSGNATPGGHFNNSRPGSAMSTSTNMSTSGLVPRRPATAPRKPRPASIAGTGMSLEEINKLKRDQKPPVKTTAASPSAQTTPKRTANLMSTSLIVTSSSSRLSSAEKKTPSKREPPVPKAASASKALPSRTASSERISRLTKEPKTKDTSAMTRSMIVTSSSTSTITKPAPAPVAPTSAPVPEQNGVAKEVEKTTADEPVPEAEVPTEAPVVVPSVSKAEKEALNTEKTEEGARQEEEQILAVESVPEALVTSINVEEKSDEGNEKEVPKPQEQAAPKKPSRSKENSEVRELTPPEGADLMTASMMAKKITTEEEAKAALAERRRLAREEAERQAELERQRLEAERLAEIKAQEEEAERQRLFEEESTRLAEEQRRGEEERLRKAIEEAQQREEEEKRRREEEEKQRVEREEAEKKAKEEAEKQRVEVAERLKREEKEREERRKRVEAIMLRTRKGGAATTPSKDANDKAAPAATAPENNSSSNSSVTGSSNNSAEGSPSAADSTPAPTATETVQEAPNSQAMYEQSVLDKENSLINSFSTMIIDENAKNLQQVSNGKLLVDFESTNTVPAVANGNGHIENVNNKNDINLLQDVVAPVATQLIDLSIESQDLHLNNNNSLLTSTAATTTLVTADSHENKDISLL

[4] = target: taxol-stabilized microtubules of native tubulin, biotin-tubulin and fluorescent-tubulin from porcine brain (~10:1:1) (porcine) (UniProt P02550); assay: as above
[5] = target: taxol-stabilized microtubules of native tubulin, biotin-tubulin and fluorescent-tubulin from porcine brain (~10:1:1) (porcine) (UniProt P02550); assay: TIRF microscopy of fluorescent proteins on immobilized microtubules; 5 nM KIF1A-mScarlet or 3 nM DDB-TMR on immobilized microtubules, alone or with 5 nM sfGFP-MAP7 or 100 nM mTagBFP-tau; 30 mM Hepes pH 7.4, 150 mM K-acetate, 2 mM Mg-acetate, 1 mM EGTA, 10% glycerol, 1 mM ATP
[6] = target: taxol-stabilized microtubules of native tubulin, biotin-tubulin and fluorescent-tubulin from porcine brain (~10:1:1) (porcine) (UniProt P02550); assay: TIRF microscopy of fluorescent proteins on immobilized microtubules; TIRF-M-based microtubule-binding assay; KD derived from saturation curves
[7] = target: taxol-stabilized microtubules polymerized from porcine brain tubulin (porcine) (UniProt P02550); assay: co-sedimentation; 500 nM sfGFP-MAP7 or sfGFP-tau with increasing microtubules; 50 mM Tris pH 8, 150 mM K-acetate, 2 mM Mg-acetate, 1 mM EGTA, 10% glycerol, DTT, taxol, BSA; 25 °C, 20 min; pelleted at 90,000 g; SDS-PAGE; apparent KD
[8] = target: taxol-stabilized microtubules polymerized from porcine brain tubulin (porcine) (UniProt P02550); assay: as above; remark: listed apart in the source
[9] = target: taxol-stabilized microtubules of native tubulin, biotin-tubulin and fluorescent-tubulin from porcine brain (~10:1:1) (porcine) (UniProt P02550); assay: single-molecule dwell time by TIRF microscopy; 250 pM sfGFP-MAP7 or 10 nM sfGFP-tau on immobilized microtubules; kymograph analysis; cumulative frequencies fit to a one phase exponential decay; 30 mM Hepes pH 7.4, 150 mM K-acetate buffer

Molecule: K523-mScarlet (from UniProt P33176 1-523) (domain or fragment)
fold change in fluorescence intensity on the microtubule in the presence of sfGFP-MAP7 [1]: 152 fold

Molecule: dynein–dynactin-BicD2 (DDB)-TMR complex (from UniProt Q921C5 1-820)
fluorescence intensity on the microtubule [5]: 164 A.U.
fluorescence intensity on the microtubule with 5 nM sfGFP-MAP7 [5]: 147 A.U.

Molecule: sfGFP-MAP7 (full-length human MAP7) (from UniProt Q14244 1-749) (natural protein)
Kd [6]: 3030 nM
Kd [7]: 460 nM
Kd [8]: 470 nM
dwell time decay constant τ [9]: 82.3 s

Molecule: sfGFP-MAP7ΔC (aa 1–353) (from UniProt Q14244 1-353) (domain or fragment)
Kd [6]: 1390 nM

The next lines start with the values.

fold change in fluorescence intensity on the microtubule in the presence of sfGFP-MAP7 [1]: 10.9 fold
Molecule: K508-mScarlet (from UniProt P33176 1-508) (domain or fragment)

KmMT of the microtubule-stimulated ATPase of 50 nM K560-mScarlet, with 50 nM sfGFP-MAP7 [2]: 0.27 µM
KmMT of the microtubule-stimulated ATPase of 50 nM K560-mScarlet, without MAP7 [2]: 1.46 µM
fold change in fluorescence intensity on the microtubule in the presence of ensconsin [3]: 147 fold
fold change in fluorescence intensity on the microtubule in the presence of sfGFP-MAP7 [1]: 165 fold
landing rate (motors μm^−1 min^−1) [4]: 0.09
landing rate with 5 nM sfGFP-MAP7 (motors μm^−1 min^−1) [4]: 1.34
Molecule: K560-mScarlet (truncated human kinesin-1) (from UniProt P33176 1-560) (domain or fragment)

fluorescence intensity on the microtubule [5]: 1000 A.U.
fluorescence intensity on the microtubule with 5 nM sfGFP-MAP7 [5]: 332 A.U.
fluorescence intensity on the microtubule with 100 nM mTagBFP-tau [5]: 427 A.U.
landing rate (motors μm^−1 min^−1) [5]: 1.5
landing rate with mTagBFP-tau (motors μm^−1 min^−1) [5]: 0.24
landing rate with sfGFP-MAP7 (motors μm^−1 min^−1) [5]: 0.38
B1: KIF1A-mScarlet (human KIF1A 1–393) (domain or fragment)
chain: MAGASVKVAVRVRPFNSREMSRDSKCIIQMSGSTTTIVNPKQPKETPKSFSFDYSYWSHTSPEDINYASQKQVYRDIGEEMLQHAFEGYNVCIFAYGQTGAGKSYTMMGKQEKDQQGIIPQLCEDLFSRINDTTNDNMSYSVEVSYMEIYCERVRDLLNPKNKGNLRVREHPLLGPYVEDLSKLAVTSYNDIQDLMDSGNKARTVAATNMNETSSRSHAVFNIIFTQKRHDAETNITTEKVSKISLVDLAGSERADSTGAKGTRLKEGANINKSLTTLGKVISALAEMDSGPNKNKKKKKTDFIPYRDSVLTWLLRENLGGNSRTAMVAALSPADINYDETLSTLRYADRAKQIRCNAVINEDPNNKLIRELKDEVTRLRDLLYAQGLGDITD
